Assay results: article PMC12375108
pKd: −log10 of the molar value.

Legend:
[1] = target: AMPylated GlnA (glutamine synthetase), recombinant (E. coli) (UniProt P0A9C5); experiment: cryo-EM structure; GlnA (4.68 mg/ml) mixed with hinT (3.29 mg/ml), 1:3 molar ratio of monomers; 10 mM Tris pH 8, 150 mM NaCl, 2 mM DTT
[2] = target: GST-tagged H. sapiens hinT H112N (human) (UniProt P49773); experiment: BLI; GST-hinT (90 nM) immobilised on anti-GST biosensors; sucA-AMP 500 to 7.81 nM, unmodified sucA at 500 nM; 10 mM Tris pH 8, 150 mM NaCl, 0.1% Triton X-100; KD from steady-state responses, one site
Chain of GST-tagged H. sapiens hinT H112N (human) (P49773 whole entry H112N): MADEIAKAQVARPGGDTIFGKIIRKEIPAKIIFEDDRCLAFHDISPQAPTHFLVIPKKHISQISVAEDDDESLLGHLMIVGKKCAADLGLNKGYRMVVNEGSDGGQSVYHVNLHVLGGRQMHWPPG

[3] = target: GST-tagged E. coli hinT H101N (E. coli) (UniProt P0ACE7); experiment: as above

Row | Substance | stoichiometry N (hinT dimers per GlnA dodecamer) [1] | pKd [2] | pKd [3]
1 | E. coli hinT H101N (untagged) (from UniProt P0ACE7 1-119) (enzyme) | < 6 |  | 
2 | AMPylated sucA (from UniProt P0AFG3 1-933) (enzyme) |  | 8.00 | 7.57
